# According to patent US20150299277A1, “AGENT FOR TREATING OR PREVENTING SYSTEMIC INFLAMMATORY RESPONSE SYNDROME” (THE UNIVERSITY OF TOKYO, priority 2012, published 2015):
# “Also recorded” adds a separate entry of the source.
# B1: C-terminal domain of PTX3: C-terminal domain human PTX3 (179-381 amino acids), Myc- and His-tagged (protein)
# chain: CETAILFPMRSKKIFGSVHPVRPMRLESFSACIWVKATDVLNKTILFSYGTKRNPYEIQLYLSYQSIVFVVGGEENKLVAEAMVSLGRWTHLCGTWNSEEGLTSLWVNGELAATTVEMATGHIVPEGGILQIGQEKNGCCVGGGFDETLAFSGRLTGFNIWDSVLSNEEIRETGGAESCHIRGNIVGWGVTEIQPHGGAQYVS
# modifications: left off: small tags and cut ends
# notes: C-terminal domain human PTX3 (179-381 amino acids), Myc- and His-tagged
# B2: N-terminal domain that lost the oligomer formation capacity: N-terminal domain human PTX3 wherein the 47th, 49th, 103rd cysteine residues were replaced with serine residue (protein)
# chain: ENLYFQGENSDDYDLMYVNLDNEIDNGLHPTEDPTPSDSGQEHSEWDKLFIMLENSQMRERMLLQATDDVLRGELQRLREELGRLAESLARPSAPGAPAEARLTSALDELLQATRDAGRRLARMEGAEAQRPEEAGRALAAVLEELRQTRADLHAVQGWAARSWLPAG
# modifications: left off: small tags and cut ends
# notes: N-terminal domain human PTX3 wherein the 47th, 49th, 103rd cysteine residues were replaced with serine residue
# B3: CRP: C-reactive protein, short pentraxin used as comparator (protein, UniProt P02741 19-224, looked up)
# C-reactive protein: QTDMSRKAFVFPKESDTSYVSLKAPLTKPLKAFTVCLHFYTELSSTRGYSIFSYATKRQDNEILIFWSKDIGYSFTVGGSEILFEVPEVTVAPVHICTSWESASGIVEFWVDGKPRVRKSLKKGYTVGAEASIILGQEQDSFGGNFEGSQSLVGDIGNVNMWDFVLSPDEINTIYLGGPFSPNVLNWRALKYEVQGEVFTKPQLWP
# Experiments:
# [1] = system: each histone; test: ELISA binding assay; design: species or system human; conditions: immobilized recombinant histone
# Procedure: Recombinant human histone (NEB) was adjusted to a concentration of 1 μg/mL in TBS, added to a 96 well ELISA plate, and immobilized at 4° C. overnight. The solution was discarded, a blocking buffer (TBS, 0.1% Triton-X100, 1% BSA) was added, and the plate was incubated at room temperature for 2 hr. The plate was washed four times with a wash buffer (TBS, 0.1% Triton-X100), recombinant PTX3 diluted to various concentrations with the blocking buffer was added to each well, and reacted at room temperature for 1 hr. After washing four times with the wash buffer, HRP-labeled antibody diluted with the blocking buffer was added, and reacted at room temperature for 1 hr. After washing four times with the wash buffer, TMB solution was added to carry out a color development reaction for 30 min, and the absorbance at 450 nm was measured. […]
# The binding level between immobilized each recombinant histone and tag-free recombinant human PTX3 (rhPTX3) was measured by binding assay (ELISA). […] ELISA was performed with duplicate wells for each point, and means and standard deviations were calculated from three independent experiments.
# The binding level between immobilized each recombinant histone and a tagged human PTX3 fragment was measured by binding assay (ELISA). […] ELISA was performed with duplicate wells for each point, and means and standard deviations were calculated from three independent experiments.
# [2] = system: each histone; test: BIAcore / surface plasmon resonance (SPR) measurement; type: binding, human; conditions: immobilized recombinant histone
# Procedure: For the measurement, BIAcore 3000 or T200 (GE Healthcare) was used. Recombinant human histone was immobilized on CM5 sensor chip by an amine coupling kit (GE Healthcare). The reaction with recombinant PTX3 was performed using a buffer (150 mM NaCl, 20 mM HEPES, 0.005% surfactant P20 (pH 7.4)) at a flow rate of 20 μl/min. Measurement was performed using the buffer containing […]. The sensor chip was regenerated in IM sodium acetate (10 μL, pH 7.2) and 10 mM NaOH (10 μL).
# The binding of immobilized each recombinant histone, and Myc- and His-tagged human PTX3 fragment was measured by surface plasmon resonance (SPR). The highest concentration of each PTX3 was as follows. full-length PTX3: 1 nM, N-terminal domain of PTX3: 5 nM, C-terminal domain of PTX3: 50 nM. The assay buffer contained 4 mM CaCl2 (Ca^2+) or 4 mM EDTA/EGTA. The affinity measured by SPR was calculated from three experiments.
# [3] = system: Calf Thymus Histones; test: Aggregation with histone, absorbance at 310 nm; type: binding; conditions: mixture with Calf Thymus Histones
# Procedure: The lower left figure and the lower right figure show the measurement results of absorbance at 310 nm of a mixture of a wild-type or oligomer formation capacity-deficient mutant of PTX3 N-terminal domain having each concentration and 0.1 mg/mL Calf Thymus Histones at 1:1 vol.
# The aggregation activity of PTX3 and other pentraxins to histone was evaluated. Calf Thymus Histones (50 μg/mL) were mixed with a PTX3 fragment or the other pentraxin at each concentration, and the absorbance at the wavelength of 310 nm was measured. Before mixing, samples were dialyzed against 4 mM CaCl2-containing TBS.
# [4] = system: each histone variant; test: Aggregation of each histone variant and PTX3 fragment, absorbance at 310 nm; type: binding; conditions: histone variant 50 μg/mL, PTX3 fragment 30 μg/mL
# Procedure: Each histone variant (50 μg/mL) and each PTX3 fragment (30 μg/mL) were mixed, and the absorbance at the wavelength of 310 nm was measured. Before mixing, samples were dialyzed against 4 mM CaCl2-containing TBS.
# [5] = system: Calf Thymus Histones on HUVEC; test: Cytotoxic assay: suppression of histone cytotoxicity on HUVEC; type: cell-based, human; conditions: 100 μg/mL Calf Thymus Histones, 40 μg/mL protein, 1 hr, PI staining, FACS
# Procedure: After culturing for 1 hr in a medium concurrently containing 100 μg/mL Calf Thymus Histones and APC (200 nM), PTX3 (40 μg/mL), CRP (40 μg/mL) or SAP (40 μg/mL), the level of toxic activity was measured by FACS.
# Normal human umbilical vein endothelial cells (HUVECs) were cultured in EGM2 medium (Clonetics). The cells after culture were washed with PBS, added with Opti-MEM medium containing an product of incubation of activated protein C (APC), PTX3, C reactive protein (CRP) or Serum amyloid P component (SAP) with histone for 1 hr, and the cells were further cultured for 1 hr. Propidium iodide (PI) was added to the medium after culture at a final concentration of 10 μg/mL, and the cells were stained for 10 min. The cells were washed with PBS, detached and analyzed by flow cytometry.
# The histone cytotoxicity on HUVEC was evaluated by propidium iodide (PI) staining.
# Lastly, capacity of suppressing the cytotoxic activity of histone was confirmed. Since this experiment requires a certain amount of protein and an endotoxin-elimination as treatment, a protein was expressed and purified at a 500 mL culture scale, and subjected to an endotoxin-elimination treatment (FIG. 18). In the case of PTX3 N-terminal domain, about 10 mg was obtained at a 500 mL culture scale, and a loss by the endotoxin-elimination treatment was scarcely observed. […]
Molecule,bindability to each histone (binding assay) [1],affinity for each histone by SPR [2],"aggregation with Calf Thymus Histones, absorbance at 310 nm [3]","aggregation with each histone variant, absorbance at 310 nm [4]",suppression of toxic activity of Calf Thymus Histones on HUVEC [5]
B1,weak,full-length PTX3>N-terminal domain>C-terminal domain,weaker than that of the full-length PTX3 and N-terminal domain of PTX3,aggregated,–
B2,decrease; also recorded: scarcely bound,affinity decreased as compared to the wild-type,decrease; also recorded: decreased aggregation activity,–,–
B3,–,–,no aggregation capacity; also recorded: scarcely showed an aggregation activity,–,do not have such suppressive effect
